Test results published in patent US20250361312A1 (INVOX PHARMA, published 2025).

How the values were obtained:
Experiment in all cases: SPR (Biacore T200), receptor on CM5 chip
human TNFRI = biological target: T1, human TNFRI (human, UniProt P19438 30-211, limits assumed)
T1 construct: Amine-coupled to a CM5 chip
T1 sequence (looked up): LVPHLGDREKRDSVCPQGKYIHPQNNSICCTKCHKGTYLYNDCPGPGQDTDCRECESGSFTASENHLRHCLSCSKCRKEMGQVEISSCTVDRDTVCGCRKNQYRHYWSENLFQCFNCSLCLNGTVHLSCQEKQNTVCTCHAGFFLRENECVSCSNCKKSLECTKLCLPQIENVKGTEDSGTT

human CD40 = biological target: T2, human CD40 (human, UniProt P25942 21-193, limits assumed)
T2 construct: Amine-coupled to a CM5 chip

human CD137 = biological target: T3, human CD137 (human, UniProt Q07011 24-186, limits assumed)
T3 construct: Amine-coupled to a CM5 chip; also called 4-1BB

human NGFR = biological target: T4, human NGFR (human, UniProt P08138 29-250, limits assumed)
T4 construct: Amine-coupled to a CM5 chip
T4 sequence (looked up): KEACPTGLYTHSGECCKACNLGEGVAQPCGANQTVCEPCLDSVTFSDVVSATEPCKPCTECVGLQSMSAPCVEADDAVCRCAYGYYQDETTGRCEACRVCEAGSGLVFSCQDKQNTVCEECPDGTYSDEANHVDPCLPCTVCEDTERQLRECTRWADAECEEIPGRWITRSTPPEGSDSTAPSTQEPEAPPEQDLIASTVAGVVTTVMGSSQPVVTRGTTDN

human TNFRII = biological target: T5, human TNFRII (human, UniProt P20333 23-257, limits assumed)
T5 construct: Amine-coupled to a CM5 chip
T5 sequence (looked up): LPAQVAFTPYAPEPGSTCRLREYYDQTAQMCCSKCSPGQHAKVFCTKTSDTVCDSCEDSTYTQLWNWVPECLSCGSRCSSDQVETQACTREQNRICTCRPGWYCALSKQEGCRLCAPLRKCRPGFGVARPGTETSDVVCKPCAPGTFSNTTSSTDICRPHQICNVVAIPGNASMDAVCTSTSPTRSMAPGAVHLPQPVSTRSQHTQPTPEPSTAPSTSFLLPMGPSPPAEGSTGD

Measured: binding result

T2 sequence (P25942 21-193 limits assumed): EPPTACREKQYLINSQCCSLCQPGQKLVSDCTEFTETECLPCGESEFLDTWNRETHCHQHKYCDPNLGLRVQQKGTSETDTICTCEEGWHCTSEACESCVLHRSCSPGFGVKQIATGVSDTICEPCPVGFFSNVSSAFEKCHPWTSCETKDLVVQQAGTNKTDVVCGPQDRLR

B1: FS20-11-134AA/4420 (bispecific antibody, human IgG1, kappa, L234A L235A)
heavy: EVKLDETGGGLVQPGRPMKLSCVASGFTFSDYWMNWVRQSPEKGLEWVAQIRNKPYNYETYYSDSVKGRFTISRDDSKSSVYLQMNNLRVEDMGIYYCTGSYYGMDYWGQGTSVTVSSASTKGPSVFPLAPSSKSTSGGTAALGCLVKDYFPEPVTVSWNSGALTSGVHTFPAVLQSSGLYSLSSVVTVPSSSLGTQTYICNVNHKPSNTKVDKKVEPKSCDKTHTCPPCPAPEAAGGPSVFLFPPKPKDTLMISRTPEVTCVVVDVSHEDPEVKFNWYVDGVEVHNAKTKPREEQYNSTYRVVSVLTVLHQDWLNGKEYKCKVSNKALPAPIEKTISKAKGQPREPQVYTLPPSREEDDNDVSLTCLVKGFYPSDIAVEWESNGIPIGPYKTTPPVLDSDGSFFLYSKLTVDKSRWWKHYVEEHPFLCSVMHEALHNHYTQKSLSLSPG
light: DVVMTQTPLSLPVSLGDQASISCRSSQSLVHSNGNTYLRWYLQKPGQSPKVLIYKVSNRFSGVPDRFSGSGSGTDFTLKISRVEAEDLGVYFCSQSTHVPWTFGGGTKLEIKRTVAAPSVFIFPPSDEQLKSGTASVVCLLNNFYPREAKVQWKVDNALQSGNSQESVTEQDSKDSTYSLSSTLTLSKADYEKHKVYACEVTHQGLSSPVTKSFNRGEC
notes: Human IgG1 with anti-FITC 4420 Fab and LALA; The OX40 site is in the CH3 domain; also called FS20-11-134 Fcab in mock (4420 LALA) mAb^2 format
no binding (tested: 1 µM): all assays above

B2: FS20-11-127AA/4420 (bispecific antibody, human IgG1, kappa, L234A L235A)
heavy: EVKLDETGGGLVQPGRPMKLSCVASGFTFSDYWMNWVRQSPEKGLEWVAQIRNKPYNYETYYSDSVKGRFTISRDDSKSSVYLQMNNLRVEDMGIYYCTGSYYGMDYWGQGTSVTVSSASTKGPSVFPLAPSSKSTSGGTAALGCLVKDYFPEPVTVSWNSGALTSGVHTFPAVLQSSGLYSLSSVVTVPSSSLGTQTYICNVNHKPSNTKVDKKVEPKSCDKTHTCPPCPAPEAAGGPSVFLFPPKPKDTLMISRTPEVTCVVVDVSHEDPEVKFNWYVDGVEVHNAKTKPREEQYNSTYRVVSVLTVLHQDWLNGKEYKCKVSNKALPAPIEKTISKAKGQPREPQVYTLPPSREEDDNDVSLTCLVKGFYPSDIAVEWESNGIPIGPYKTTPPVLDSDGSFFLYSKLTVDKSRWWRHYVEEHPFLCSVMHEALHNHYTQKSLSLSPG
light: DVVMTQTPLSLPVSLGDQASISCRSSQSLVHSNGNTYLRWYLQKPGQSPKVLIYKVSNRFSGVPDRFSGSGSGTDFTLKISRVEAEDLGVYFCSQSTHVPWTFGGGTKLEIKRTVAAPSVFIFPPSDEQLKSGTASVVCLLNNFYPREAKVQWKVDNALQSGNSQESVTEQDSKDSTYSLSSTLTLSKADYEKHKVYACEVTHQGLSSPVTKSFNRGEC
notes: Human IgG1 with anti-FITC 4420 Fab and LALA; The OX40 site is in the CH3 domain
no binding (tested: 1 µM): all assays above
